For experiment [1], the target named is T1, La-DOTA-c(RGDyK) (also: DOTA as La complex).
T1 chain: cyclo(RGD[dY]K(DOTA))
As to the kind of experiment: SPR competition.

The target in experiment [2] is T1, La-DOTA-c(RGDyK). The experiment can be described thus: SPR competition.

Square brackets hold non-standard residues; d marks the D form. * marks the point of attachment. DOTA = O=C(O)CN1CCN(CC(=O)O)CCN(CC(=O)*)CCN(CC(=O)O)CC1

Consider 1 molecule from publication PMC4805664 (2016).

B1: Integrin alphaVbeta3 (protein)
chain 1: FNLDVDSPAEYSGPEGSYFGFAVDFFVPSASSRMFLLVGAPKANTTQPGIVEGGQVLKCDWSSTRRCQPIEFDATGNRDYAKDDPLEFKSHQWFGASVRSKQDKILACAPLYHWRTEMKQEREPVGTCFLQDGTKTVEYAPCRSQDIDADGQGFCQGGFSIDFTKADRVLLGGPGSFYWQGQLISDQVAEIVSKYDPNVYSIKYNNQLATRTAQAIFDDSYLGYSVAVGDFNGDGIDDFVSGVPRAARTLGMVYIYDGKNMSSLYNFTGEQMAAYFGFSVAATDINGDDYADVFIGAPLFMDRGSDGKLQEVGQVSVSLQRASGDFQTTKLNGFEVFARFGSAIAPLGDLDQDGFNDIAIAAPYGGEDKKGIVYIFNGRSTGLNAVPSQILEGQWAARSMPPSFGYSMKGATDIDKNGYPDLIVGAFGVDRAILYRARPVITVNAGLEVYPSILNQDNKTCSLPGTALKVSCFNVRFCLKADGKGVLPRKLNFQVELLLDKLKQKGAIRRALFLYSRSPSHSKNMTISRGGLMQCEELIAYLRDESEFRDKLTPITIFMEYRLDYRTAADTTGLQPILNQFTPANISRQAHILLDCGEDNVCKPKLEVSVDSDQKKIYIGDDNPLTLIVKAQNQGEGAYEAELIVSIPLQADFIGVVRNNEALARLSCAFKTENQTRQVVCDLGNPMKAGTQLLAGLRFSVHQQSEMDTSVKFDLQIQSSNLFDKVSPVVSHKVDLAVLAAVEIRGVSSPDHVFLPIPNWEHKENPETEEDVGPVVQHIYELRNNGPSSFSKAMLHLQWPYKYNNNTLLYILHYDIDGPMNCTSDMEINPLRIKISSLQTTEKNDTVAGQGERDHLITKRDLALSEGDIHTLGCGVAQCLKIVCQVGRLDRGKSAILYVKSLLWTETFMNKENQNHSYSLKSSASFNVIEFPYKNLPIEDITNSTLVTTNVTWGIQPAPMPV
chain 2: GPNICTTRGVSSCQQCLAVSPMCAWCSDEALPLGSPRCDLKENLLKDNCAPESIEFPVSEARVLEDRPLSDKGSGDSSQVTQVSPQRIALRLRPDDSKNFSIQVRQVEDYPVDIYYLMDLSYSMKDDLWSIQNLGTKLATQMRKLTSNLRIGFGAFVDKPVSPYMYISPPEALENPCYDMKTTCLPMFGYKHVLTLTDQVTRFNEEVKKQSVSRNRDAPEGGFDAIMQATVCDEKIGWRNDASHLLVFTTDAKTHIALDGRLAGIVQPNDGQCHVGSDNHYSASTTMDYPSLGLMTEKLSQKNINLIFAVTENVVNLYQNYSELIPGTTVGVLSMDSSNVLQLIVDAYGKIRSKVELEVRDLPEELSLSFNATCLNNEVIPGLKSCMGLKIGDTVSFSIEAKVRGCPQEKEKSFTIKPVGFKDSLIVQVTFDCDCACQAQAEPNSHRCNNGNGTFECGVCRCGPGWLGSQCECSEEDYRPSQQDECSPREGQPVCSQRGECLCGQCVCHSSDFGKITGKYCECDDFSCVRYKGEMCSGHGQCSCGDCLCDSDWTGYYCNCTTRTDTCMSSNGLLCSGRGKCECGSCVCIQPGSYGDTCEKCPTCPDACTFKKECVECKKFDRGALHDENTCNRYCRDEIESVKELKDTGKDAVNCTYKNEDDCVVRFQYYEDSSGKSILYVVEEPECPKGPD
For orientation: IC50 means the midpoint of a concentration-inhibition curve. A lower IC50 goes with greater potency. In general, Ki refers to the dissociation constant of the complex between target and ligand, obtained from inhibition or displacement. A higher Ki goes with a looser hold on the target. On to B1, for which the concentration for half-maximal inhibition (IC50) in experiment [1] is 33 nM. The inhibition constant Ki in experiment [2] was found to be 26 nM.
